# IntAct's records for PubMed 17891150
# Biological target: TNRC6B, Q9UPQ9-2
# Sequence (Q9UPQ9 other isoform, or with tags, fused parts or gaps): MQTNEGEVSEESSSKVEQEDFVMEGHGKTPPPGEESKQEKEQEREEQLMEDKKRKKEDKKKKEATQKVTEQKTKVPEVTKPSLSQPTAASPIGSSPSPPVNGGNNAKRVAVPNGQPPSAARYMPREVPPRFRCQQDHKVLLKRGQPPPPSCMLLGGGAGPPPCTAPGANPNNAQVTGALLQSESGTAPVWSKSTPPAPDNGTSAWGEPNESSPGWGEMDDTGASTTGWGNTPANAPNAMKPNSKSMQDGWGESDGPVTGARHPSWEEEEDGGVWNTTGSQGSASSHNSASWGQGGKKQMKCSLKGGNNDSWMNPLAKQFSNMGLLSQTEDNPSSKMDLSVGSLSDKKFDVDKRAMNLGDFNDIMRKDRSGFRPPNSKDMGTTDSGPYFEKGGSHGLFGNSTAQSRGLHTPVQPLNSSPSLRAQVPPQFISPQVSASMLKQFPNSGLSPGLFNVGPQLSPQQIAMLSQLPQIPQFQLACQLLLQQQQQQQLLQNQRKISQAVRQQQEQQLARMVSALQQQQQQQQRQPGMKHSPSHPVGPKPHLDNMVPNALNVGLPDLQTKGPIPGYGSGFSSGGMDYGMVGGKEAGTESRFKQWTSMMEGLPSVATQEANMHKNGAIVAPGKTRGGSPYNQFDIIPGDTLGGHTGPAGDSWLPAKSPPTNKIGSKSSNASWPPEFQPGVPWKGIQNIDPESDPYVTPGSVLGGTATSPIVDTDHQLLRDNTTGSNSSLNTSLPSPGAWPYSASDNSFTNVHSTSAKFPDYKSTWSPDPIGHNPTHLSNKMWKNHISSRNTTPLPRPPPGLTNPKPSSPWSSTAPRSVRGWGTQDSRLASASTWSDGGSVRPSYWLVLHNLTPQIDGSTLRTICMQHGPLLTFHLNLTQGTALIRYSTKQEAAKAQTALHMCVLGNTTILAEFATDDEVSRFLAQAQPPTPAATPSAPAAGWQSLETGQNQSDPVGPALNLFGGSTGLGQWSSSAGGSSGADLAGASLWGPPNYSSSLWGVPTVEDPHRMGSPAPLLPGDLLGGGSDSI
# Chain of Protein argonaute-2 (Homo sapiens), Q9UKV8 R583A (Q9UKV8 whole entry R583A): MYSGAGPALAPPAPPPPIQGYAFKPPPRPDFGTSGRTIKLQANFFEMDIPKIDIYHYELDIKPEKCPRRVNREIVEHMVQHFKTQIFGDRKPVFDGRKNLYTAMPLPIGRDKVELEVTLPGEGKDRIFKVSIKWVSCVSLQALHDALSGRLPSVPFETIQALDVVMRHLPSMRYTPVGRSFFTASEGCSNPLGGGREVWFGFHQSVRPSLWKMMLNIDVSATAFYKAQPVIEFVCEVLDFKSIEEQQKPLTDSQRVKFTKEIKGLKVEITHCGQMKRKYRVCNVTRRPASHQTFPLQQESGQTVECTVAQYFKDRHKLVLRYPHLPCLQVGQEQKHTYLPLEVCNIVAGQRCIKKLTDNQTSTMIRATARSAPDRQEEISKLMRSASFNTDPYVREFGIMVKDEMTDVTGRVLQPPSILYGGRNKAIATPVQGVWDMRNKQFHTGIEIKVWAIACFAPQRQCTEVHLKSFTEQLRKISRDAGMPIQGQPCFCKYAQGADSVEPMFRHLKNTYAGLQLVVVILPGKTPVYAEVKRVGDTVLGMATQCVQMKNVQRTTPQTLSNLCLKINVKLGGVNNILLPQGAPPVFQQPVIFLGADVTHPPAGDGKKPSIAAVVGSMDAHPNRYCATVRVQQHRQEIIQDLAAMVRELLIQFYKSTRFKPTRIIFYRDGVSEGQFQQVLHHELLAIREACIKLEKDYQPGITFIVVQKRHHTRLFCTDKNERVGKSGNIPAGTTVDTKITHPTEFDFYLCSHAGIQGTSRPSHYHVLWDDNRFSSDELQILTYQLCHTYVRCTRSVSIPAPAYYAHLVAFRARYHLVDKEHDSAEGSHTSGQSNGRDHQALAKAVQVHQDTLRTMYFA
# Chain of Protein argonaute-2 (Homo sapiens), Q9UKV8 F653A (Q9UKV8 whole entry F653A): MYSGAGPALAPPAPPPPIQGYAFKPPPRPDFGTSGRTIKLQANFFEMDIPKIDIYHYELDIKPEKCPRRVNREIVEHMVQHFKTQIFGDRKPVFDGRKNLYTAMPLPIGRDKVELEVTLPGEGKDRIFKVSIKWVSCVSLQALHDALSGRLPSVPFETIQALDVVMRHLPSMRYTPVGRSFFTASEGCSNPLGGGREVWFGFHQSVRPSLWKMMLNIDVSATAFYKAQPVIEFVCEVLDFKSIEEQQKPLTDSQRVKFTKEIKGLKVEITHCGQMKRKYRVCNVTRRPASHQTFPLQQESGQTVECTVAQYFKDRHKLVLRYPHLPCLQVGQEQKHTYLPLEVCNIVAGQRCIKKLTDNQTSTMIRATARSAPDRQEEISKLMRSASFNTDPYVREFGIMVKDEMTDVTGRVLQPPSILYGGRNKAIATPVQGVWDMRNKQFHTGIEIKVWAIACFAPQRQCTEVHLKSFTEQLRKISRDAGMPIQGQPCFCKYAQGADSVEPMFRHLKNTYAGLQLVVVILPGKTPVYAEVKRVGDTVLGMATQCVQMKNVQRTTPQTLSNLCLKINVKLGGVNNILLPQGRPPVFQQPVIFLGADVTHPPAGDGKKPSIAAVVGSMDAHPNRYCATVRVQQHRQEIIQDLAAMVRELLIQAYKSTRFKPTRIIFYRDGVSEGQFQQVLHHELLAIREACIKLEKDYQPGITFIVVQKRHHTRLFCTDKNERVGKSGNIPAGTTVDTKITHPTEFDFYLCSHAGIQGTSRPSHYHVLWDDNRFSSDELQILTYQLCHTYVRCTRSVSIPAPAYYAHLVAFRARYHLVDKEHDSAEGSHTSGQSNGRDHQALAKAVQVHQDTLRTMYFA
# Chain of Protein argonaute-2 (Homo sapiens), Q9UKV8 Y529A (Q9UKV8 whole entry Y529A): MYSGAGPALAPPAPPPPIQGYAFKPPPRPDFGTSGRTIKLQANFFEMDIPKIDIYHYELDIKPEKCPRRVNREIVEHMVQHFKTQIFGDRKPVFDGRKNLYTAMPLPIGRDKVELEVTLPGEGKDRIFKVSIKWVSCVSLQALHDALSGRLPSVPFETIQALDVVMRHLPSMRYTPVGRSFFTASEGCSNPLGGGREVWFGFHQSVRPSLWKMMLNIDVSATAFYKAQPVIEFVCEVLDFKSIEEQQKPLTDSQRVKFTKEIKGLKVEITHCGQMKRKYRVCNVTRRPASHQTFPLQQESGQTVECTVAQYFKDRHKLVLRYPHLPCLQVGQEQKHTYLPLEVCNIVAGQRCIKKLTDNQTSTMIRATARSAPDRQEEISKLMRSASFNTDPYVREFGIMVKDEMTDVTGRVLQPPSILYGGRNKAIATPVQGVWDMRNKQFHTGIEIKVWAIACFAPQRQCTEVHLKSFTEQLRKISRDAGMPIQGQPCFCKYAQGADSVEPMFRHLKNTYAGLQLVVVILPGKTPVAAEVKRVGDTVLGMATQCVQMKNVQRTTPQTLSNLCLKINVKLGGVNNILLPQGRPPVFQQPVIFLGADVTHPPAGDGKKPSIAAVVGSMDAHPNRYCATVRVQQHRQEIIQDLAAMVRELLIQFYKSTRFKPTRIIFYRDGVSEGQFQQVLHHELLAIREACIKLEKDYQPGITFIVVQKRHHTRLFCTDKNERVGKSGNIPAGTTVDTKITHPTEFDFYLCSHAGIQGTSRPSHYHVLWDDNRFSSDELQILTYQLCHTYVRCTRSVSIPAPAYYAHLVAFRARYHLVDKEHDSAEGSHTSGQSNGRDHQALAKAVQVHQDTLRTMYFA
# Chain of Protein argonaute-2 (Homo sapiens), Q9UKV8 Q545A (Q9UKV8 whole entry Q545A): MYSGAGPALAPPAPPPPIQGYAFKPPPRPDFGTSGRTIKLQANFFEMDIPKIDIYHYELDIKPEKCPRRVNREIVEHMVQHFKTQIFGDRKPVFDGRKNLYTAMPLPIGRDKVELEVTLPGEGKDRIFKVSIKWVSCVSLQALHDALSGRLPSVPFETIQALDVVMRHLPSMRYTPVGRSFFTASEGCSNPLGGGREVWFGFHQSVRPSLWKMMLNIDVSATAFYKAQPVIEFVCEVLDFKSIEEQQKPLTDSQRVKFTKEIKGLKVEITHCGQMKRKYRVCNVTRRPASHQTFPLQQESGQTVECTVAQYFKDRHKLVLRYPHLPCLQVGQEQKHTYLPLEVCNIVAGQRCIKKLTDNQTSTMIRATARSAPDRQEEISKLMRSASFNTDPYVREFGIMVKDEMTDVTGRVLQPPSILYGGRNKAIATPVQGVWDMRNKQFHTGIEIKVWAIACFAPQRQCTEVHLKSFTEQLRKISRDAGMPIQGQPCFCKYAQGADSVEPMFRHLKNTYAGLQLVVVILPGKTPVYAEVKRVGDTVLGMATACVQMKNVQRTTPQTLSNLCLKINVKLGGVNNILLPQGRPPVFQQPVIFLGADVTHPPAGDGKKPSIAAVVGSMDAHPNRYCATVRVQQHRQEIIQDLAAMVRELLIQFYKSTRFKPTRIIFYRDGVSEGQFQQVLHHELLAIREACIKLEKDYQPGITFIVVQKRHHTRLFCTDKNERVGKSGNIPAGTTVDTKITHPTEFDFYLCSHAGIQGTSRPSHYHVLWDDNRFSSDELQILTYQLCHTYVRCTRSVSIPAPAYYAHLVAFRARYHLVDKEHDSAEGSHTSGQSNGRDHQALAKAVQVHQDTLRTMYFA
row,Substance,effect of a mutation on the interaction
1,"Protein argonaute-2 (Homo sapiens), Q9UKV8 R812A",disrupting interaction
2,"Protein argonaute-2 (Homo sapiens), Q9UKV8 R583A",disrupting interaction
3,"Protein argonaute-2 (Homo sapiens), Q9UKV8 F587A",decreasing interaction
4,"Protein argonaute-2 (Homo sapiens), Q9UKV8 Y805A",decreasing interaction
5,"Protein argonaute-2 (Homo sapiens), Q9UKV8 Q545A",disrupting interaction strength
6,"Protein argonaute-2 (Homo sapiens), Q9UKV8 R647A",disrupting interaction
7,"Protein argonaute-2 (Homo sapiens), Q9UKV8 F858A",decreasing interaction
8,"Protein argonaute-2 (Homo sapiens), Q9UKV8 Y749A",decreasing interaction
9,"Protein argonaute-2 (Homo sapiens), Q9UKV8 Y784A",decreasing interaction
10,"Protein argonaute-2 (Homo sapiens), Q9UKV8 I592A",disrupting interaction
11,"Protein argonaute-2 (Homo sapiens), Q9UKV8 F653A",disrupting interaction
12,"Protein argonaute-2 (Homo sapiens), Q9UKV8 Y529A",disrupting interaction
13,"Protein argonaute-2 (Homo sapiens), Q9UKV8 K533A",disrupting interaction
14,"Protein argonaute-2 (Homo sapiens), Q9UKV8 V797A",disrupting interaction
15,"Protein argonaute-2 (Homo sapiens), Q9UKV8 Y625A",disrupting interaction
16,"Protein argonaute-2 (Homo sapiens), Q9UKV8 V615A",decreasing interaction
